Data on seven substances can be found in IntAct's records for PubMed 19625296.

One experiment has as its target dvl2_human DVL2 (UniProt O14641).
The next experiment has as its target dvl3_human DVL3 (UniProt Q92997).
Sequence of UniProt Q92997 (Q92997 whole entry): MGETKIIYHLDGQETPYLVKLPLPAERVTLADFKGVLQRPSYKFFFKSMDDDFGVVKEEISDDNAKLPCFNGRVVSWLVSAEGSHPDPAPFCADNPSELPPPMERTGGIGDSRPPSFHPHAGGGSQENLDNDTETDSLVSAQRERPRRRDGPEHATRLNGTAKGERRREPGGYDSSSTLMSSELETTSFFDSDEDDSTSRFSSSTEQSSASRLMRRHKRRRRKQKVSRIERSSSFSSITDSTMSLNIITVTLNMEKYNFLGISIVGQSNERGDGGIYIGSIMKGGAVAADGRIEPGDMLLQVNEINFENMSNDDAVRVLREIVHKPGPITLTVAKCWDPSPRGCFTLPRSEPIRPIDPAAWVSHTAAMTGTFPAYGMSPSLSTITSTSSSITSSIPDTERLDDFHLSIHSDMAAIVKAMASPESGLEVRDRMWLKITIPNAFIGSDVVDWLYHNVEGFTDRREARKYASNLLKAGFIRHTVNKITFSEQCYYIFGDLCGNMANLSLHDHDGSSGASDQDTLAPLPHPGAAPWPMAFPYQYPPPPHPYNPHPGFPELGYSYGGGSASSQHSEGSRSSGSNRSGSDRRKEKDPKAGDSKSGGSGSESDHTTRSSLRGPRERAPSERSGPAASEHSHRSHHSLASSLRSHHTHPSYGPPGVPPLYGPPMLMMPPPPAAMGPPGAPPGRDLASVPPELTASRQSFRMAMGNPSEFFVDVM

Sequence of DVL1, O14640-2 (O14640 other isoform, or with tags, fused parts or gaps): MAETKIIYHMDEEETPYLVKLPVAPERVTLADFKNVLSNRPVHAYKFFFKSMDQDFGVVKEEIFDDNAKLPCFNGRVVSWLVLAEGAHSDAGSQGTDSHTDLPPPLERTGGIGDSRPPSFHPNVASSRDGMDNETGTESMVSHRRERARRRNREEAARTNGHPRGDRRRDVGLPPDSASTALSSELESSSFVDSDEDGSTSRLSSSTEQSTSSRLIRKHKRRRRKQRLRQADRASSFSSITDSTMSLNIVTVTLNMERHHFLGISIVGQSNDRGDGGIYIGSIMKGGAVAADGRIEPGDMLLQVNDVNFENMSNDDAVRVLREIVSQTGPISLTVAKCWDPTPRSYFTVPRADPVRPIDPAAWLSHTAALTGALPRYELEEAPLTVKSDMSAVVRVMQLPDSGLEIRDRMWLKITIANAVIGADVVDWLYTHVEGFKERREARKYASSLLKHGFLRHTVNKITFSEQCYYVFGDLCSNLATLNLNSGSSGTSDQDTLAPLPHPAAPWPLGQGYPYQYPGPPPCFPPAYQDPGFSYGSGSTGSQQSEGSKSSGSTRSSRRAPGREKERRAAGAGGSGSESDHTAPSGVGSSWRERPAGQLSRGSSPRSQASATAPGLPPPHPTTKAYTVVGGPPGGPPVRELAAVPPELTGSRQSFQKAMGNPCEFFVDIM
Sequence of UniProt O14641 (O14641 whole entry): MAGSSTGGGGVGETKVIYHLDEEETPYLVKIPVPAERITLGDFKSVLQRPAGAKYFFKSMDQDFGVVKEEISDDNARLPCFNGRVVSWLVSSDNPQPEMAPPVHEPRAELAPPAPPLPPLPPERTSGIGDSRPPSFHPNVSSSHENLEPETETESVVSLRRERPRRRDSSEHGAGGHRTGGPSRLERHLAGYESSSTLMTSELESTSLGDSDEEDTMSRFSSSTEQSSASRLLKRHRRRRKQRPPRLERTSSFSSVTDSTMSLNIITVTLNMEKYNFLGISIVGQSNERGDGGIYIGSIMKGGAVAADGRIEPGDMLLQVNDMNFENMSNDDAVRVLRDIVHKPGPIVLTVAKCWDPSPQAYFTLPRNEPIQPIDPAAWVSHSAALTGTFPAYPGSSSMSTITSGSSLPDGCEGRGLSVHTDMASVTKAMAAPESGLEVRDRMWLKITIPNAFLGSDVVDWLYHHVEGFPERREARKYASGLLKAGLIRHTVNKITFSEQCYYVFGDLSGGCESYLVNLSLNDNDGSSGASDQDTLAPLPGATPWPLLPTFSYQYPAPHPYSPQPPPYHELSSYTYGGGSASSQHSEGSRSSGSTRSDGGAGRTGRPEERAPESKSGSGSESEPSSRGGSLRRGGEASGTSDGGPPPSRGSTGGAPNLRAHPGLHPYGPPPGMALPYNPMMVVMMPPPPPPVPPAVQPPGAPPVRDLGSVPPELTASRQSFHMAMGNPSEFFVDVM

For the substance “Leucine-rich repeat serine/threonine-protein kinase 2 (Homo sapiens), Q5S007 R1441C”, the “effect of a mutation on the interaction” value with DVL1, O14640-2 is given as “increasing interaction”. Same read-out and setting: under “Leucine-rich repeat serine/threonine-protein kinase 2 (Homo sapiens), Q5S007 R1441G” stands “increasing interaction”.

Turning to “Leucine-rich repeat serine/threonine-protein kinase 2 (Homo sapiens), Q5S007 R1441H”, in the experiment with DVL1, O14640-2, the “effect of a mutation on the interaction” value is “increasing interaction”.

For the substance “Leucine-rich repeat serine/threonine-protein kinase 2 (Homo sapiens), Q5S007 R1514Q”, in the experiment with dvl2_human DVL2, the “effect of a mutation on the interaction” value is reported as “decreasing interaction”. For “Leucine-rich repeat serine/threonine-protein kinase 2 (Homo sapiens), Q5S007 R1728H”, the “effect of a mutation on the interaction” value with DVL1, O14640-2 is listed as “increasing interaction”.

As to “Leucine-rich repeat serine/threonine-protein kinase 2 (Homo sapiens), Q5S007 R1728L”, the “effect of a mutation on the interaction” value with DVL1, O14640-2 is “increasing interaction”. On to “Leucine-rich repeat serine/threonine-protein kinase 2 (Homo sapiens), Q5S007 Y1699C”, for which the “effect of a mutation on the interaction” value was “decreasing interaction” with dvl2_human DVL2; “decreasing interaction” in the experiment with dvl3_human DVL3; “decreasing interaction” with DVL1, O14640-2.
